From patent publication US20030118551A1

Assays:
[1] = biological target: collagen (collagen-coated microtiter wells and culture plates; collagen matrices); experiment: cell-based or functional assay
[2] = biological target: collagen (collagen-coated microtiter wells and culture plates; collagen matrices); experiment: about 1 µg protein on collagen-coated microtiter plates, washes of rising stringency, immunodetection with DAB

Row | Substance | transduction efficiency of NIH 3T3 cells overlaid upon the virus-bound collagen [1] [%] | urea needed to release the collagen-bound protein [2] [M]
1 | chimeric ECB-CEE+ Moloney Murine Leukemia Virus gp70 envelope protein with collagen binding domain, on retroviral vector particles (from UniProt P03385 52-469) | 20 to 40 | 
2 | purified, renatured SU-ECB-CEE+ chimeric envelope protein (His×6 tag, von Willebrand Factor derived collagen binding domain, mature SU region of MoMuLV env gp70, residues 34 to 474) (from UniProt P03385 52-474) |  | 3
